# Patent publication US20210347891A1
# Tests used:
# [1] = target: single chain FcRn-β2m-his (human scFcRn, Acro Biosystems Cat. No. FCM-H5286) (human) (UniProt P55899); experiment: FACS of E. coli spheroplasts displaying the IgG, 10 nM scFcRn-FITC at pH 5.8
# [2] = target: dimeric human FcRn-β2m-GST (human) (UniProt P55899); experiment: FACS of E. coli spheroplasts displaying the IgG, 50 nM dFcRn-GST-APC at pH 7.4
# [3] = target: single chain FcRn-β2m-his (human scFcRn, Acro Biosystems Cat. No. FCM-H5286) (human) (UniProt P55899); experiment: SPR, antibody on CM5 chip, scFcRn 400-25 nM, pH 5.8 PBS, 1:1 Langmuir
# [4] = target: dimeric FcγRIIa-H131-GST (human) (human) (UniProt P12318); experiment: SPR, antibody on CM5 chip, receptor injected, pH 7.4 HBS-EP
# [5] = target: dimeric FcγRIIa-R131-GST (human) (human) (UniProt P12318); experiment: as above
# [6] = target: dimeric FcγRIIIa-F158-GST (human) (human) (UniProt P08637); experiment: as above
# [7] = target: dimeric FcγRIIb-GST (human) (human) (UniProt P31994); experiment: as above
# [8] = target: monomeric FcγRI-His (human) (human) (UniProt P12314); experiment: as above
# [9] = target: dimeric FcγRIIa-R131-GST (human) (human) (UniProt P12318); experiment: ELISA: antibody coated, serially diluted GST-FcγRIIaR131 (the concentration is that of the receptor), anti-GST HRP
# C1q = C1q (UniProt P02745); experiment: SPR, antibody on CM5 chip, C1q injected, pH 7.4 HBS-EP
# [10] = target: single chain FcRn-β2m-his (human scFcRn, Acro Biosystems Cat. No. FCM-H5286) (human) (UniProt P55899); experiment: SPR, antibody on CM5 chip, FcRn/β2m injected, pH 5.8 (same values as Table 5)
# [11] = target: dimeric FcγRIIb-GST (human) (human) (UniProt P31994); experiment: ELISA: antibody coated, serially diluted GST-FcγRIIb (the concentration is that of the receptor), anti-GST HRP
# [12] = target: single chain FcRn-β2m-his (human scFcRn, Acro Biosystems Cat. No. FCM-H5286) (human) (UniProt P55899); experiment: SPR, antibody on CM5 chip, scFcRn, pH 5.8
# [13] = target: single chain FcRn-β2m-his (human scFcRn, Acro Biosystems Cat. No. FCM-H5286) (human) (UniProt P55899); experiment: SPR, antibody on CM5 chip, scFcRn 400-25 nM, pH 5.8 PBS
# [14] = target: single chain FcRn-β2m-his (human scFcRn, Acro Biosystems Cat. No. FCM-H5286) (human) (UniProt P55899); experiment: SPR at pH 7.4 PBS, scFcRn on CM5 chip at high density (4000 RU), antibody 400-25 nM injected
# [15] = target: single chain FcRn-β2m-his (human scFcRn, Acro Biosystems Cat. No. FCM-H5286) (human) (UniProt P55899); experiment: SPR at pH 7.4 PBS, scFcRn on CM5 chip at medium density (2000 RU), antibody 400-25 nM injected
# [16] = target: dimeric human FcRn-β2m-GST (human) (UniProt P55899); experiment: ELISA at pH 7.4: antibody coated, serially diluted dFcRn (the concentration is that of dFcRn), anti-GST HRP
# Chain of dimeric FcγRIIa-R131-GST (human) (human) (P12318 34-218 H167R limits assumed): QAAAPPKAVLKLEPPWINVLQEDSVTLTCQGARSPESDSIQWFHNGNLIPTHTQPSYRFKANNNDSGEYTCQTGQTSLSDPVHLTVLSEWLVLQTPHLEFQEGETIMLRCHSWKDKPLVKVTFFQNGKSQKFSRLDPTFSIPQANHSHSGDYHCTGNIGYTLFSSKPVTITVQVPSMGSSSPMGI
# Chain of dimeric FcγRIIb-GST (human) (human) (P31994 43-217 limits assumed): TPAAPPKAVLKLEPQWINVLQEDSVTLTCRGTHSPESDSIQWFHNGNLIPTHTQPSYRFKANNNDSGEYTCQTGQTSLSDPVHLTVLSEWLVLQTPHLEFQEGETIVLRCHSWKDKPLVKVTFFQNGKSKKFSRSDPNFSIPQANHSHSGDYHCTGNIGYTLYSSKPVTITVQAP
# Chain of C1q (P02745 23-245 limits assumed, chain 1 of 3): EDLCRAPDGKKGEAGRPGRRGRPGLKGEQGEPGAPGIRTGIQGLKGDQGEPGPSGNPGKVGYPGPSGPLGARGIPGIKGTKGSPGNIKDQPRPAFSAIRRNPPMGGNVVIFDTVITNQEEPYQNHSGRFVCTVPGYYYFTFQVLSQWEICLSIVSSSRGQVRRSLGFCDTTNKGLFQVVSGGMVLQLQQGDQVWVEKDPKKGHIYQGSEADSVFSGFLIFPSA
# Chain of C1q (P02746 28-253 limits assumed, chain 2 of 3, further chain): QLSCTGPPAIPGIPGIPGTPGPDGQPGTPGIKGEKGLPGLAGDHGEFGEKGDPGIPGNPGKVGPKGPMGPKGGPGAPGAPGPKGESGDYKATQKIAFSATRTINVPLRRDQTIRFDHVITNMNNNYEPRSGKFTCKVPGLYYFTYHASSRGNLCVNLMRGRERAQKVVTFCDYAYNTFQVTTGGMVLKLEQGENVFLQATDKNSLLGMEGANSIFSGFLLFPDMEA
# Chain of C1q (P02747 29-245 limits assumed, chain 3 of 3, further chain): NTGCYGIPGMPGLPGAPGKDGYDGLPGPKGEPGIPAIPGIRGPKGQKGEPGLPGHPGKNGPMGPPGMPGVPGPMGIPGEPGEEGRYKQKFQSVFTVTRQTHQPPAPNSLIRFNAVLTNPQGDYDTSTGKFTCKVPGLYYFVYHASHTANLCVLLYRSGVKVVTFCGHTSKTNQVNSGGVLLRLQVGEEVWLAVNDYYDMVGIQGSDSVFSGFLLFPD
# Chain of dimeric FcγRIIa-H131-GST (human) (human) (P12318 34-218 limits assumed): as the sequence (P12318 34-218 H167R limits assumed) above, with R134H counted along it
# Chain of dimeric human FcRn-β2m-GST (human) (P55899 other isoform, or with tags, fused parts or gaps limits assumed): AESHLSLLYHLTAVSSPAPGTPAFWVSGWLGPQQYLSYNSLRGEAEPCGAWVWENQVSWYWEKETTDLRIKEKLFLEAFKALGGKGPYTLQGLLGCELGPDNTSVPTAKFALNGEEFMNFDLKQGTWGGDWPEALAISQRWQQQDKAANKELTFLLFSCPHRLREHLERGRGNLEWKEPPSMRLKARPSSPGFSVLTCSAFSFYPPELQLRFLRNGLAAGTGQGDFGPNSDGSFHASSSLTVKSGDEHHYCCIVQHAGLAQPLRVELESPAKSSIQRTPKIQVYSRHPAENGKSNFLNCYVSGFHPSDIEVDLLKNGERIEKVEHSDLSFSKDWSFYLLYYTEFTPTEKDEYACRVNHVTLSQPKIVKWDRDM
# Chain of single chain FcRn-β2m-his (human scFcRn, Acro Biosystems Cat. No. FCM-H5286) (human) (P55899 other isoform, or with tags, fused parts or gaps): as the sequence (P55899 other isoform, or with tags, fused parts or gaps limits assumed) above
# Chain of monomeric FcγRI-His (human) (human) (P12314 16-288 limits assumed): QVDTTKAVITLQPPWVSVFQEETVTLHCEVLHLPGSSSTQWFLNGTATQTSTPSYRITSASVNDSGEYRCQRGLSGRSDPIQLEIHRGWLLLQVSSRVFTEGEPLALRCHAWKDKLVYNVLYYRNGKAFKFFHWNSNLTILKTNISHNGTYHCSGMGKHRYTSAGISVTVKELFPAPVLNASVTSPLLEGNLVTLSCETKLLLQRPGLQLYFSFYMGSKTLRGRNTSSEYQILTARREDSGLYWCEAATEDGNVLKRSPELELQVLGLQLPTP
# Chain of dimeric FcγRIIIa-F158-GST (human) (human) (P08637 17-208 limits assumed): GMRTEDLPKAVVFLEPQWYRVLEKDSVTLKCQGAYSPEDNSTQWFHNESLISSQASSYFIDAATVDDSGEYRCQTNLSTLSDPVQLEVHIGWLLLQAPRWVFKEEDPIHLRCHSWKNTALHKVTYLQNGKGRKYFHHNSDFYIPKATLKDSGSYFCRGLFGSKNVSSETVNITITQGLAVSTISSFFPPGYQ
# Chain of Herceptin-IgG4 (wild type IgG4 with the Fab of trastuzumab) (antibody) (Fc): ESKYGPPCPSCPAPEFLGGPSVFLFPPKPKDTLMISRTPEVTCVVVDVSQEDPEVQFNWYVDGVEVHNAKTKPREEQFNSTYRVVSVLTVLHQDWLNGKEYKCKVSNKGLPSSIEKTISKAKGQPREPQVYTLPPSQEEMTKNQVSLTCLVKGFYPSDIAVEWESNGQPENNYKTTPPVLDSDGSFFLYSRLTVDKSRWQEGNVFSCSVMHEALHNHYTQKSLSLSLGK
substance,measurement,setting,value
"EDH (V264E, L309D, and Q311H), IgG displayed on E. coli spheroplasts (antibody)",M (mean fluorescence intensity),[1],135
same,M (mean fluorescence intensity),[2],20.4
"EDHS (V264E, L309D, Q311H, and N434S), IgG displayed on E. coli spheroplasts (antibody)",M (mean fluorescence intensity),[1],239
same,M (mean fluorescence intensity),[2],60.3
"EDHY (V264E, L309D, Q311H, and N434Y), IgG displayed on E. coli spheroplasts (antibody)",M (mean fluorescence intensity),[1],265
same,M (mean fluorescence intensity),[2],379
Herceptin-DHS (L309D; Q311H; N434S) (antibody),Kd,[3],111 nM
same,Kd,[4],270 nM
same,Kd,[5],950 nM
same,Kd,[6],480 nM
same,Kd,[7],2910 nM
same,Kd,[8],0.28 nM
same,EC50 (read off the curve),[9],7 nM
same,Kd,C1q,25 nM
same,Kd,[10],110 nM
same,EC50 (read off the curve),[11],4 nM
"Herceptin-EDH (V264E, L309D, Q311H) (antibody)",Kd,[3],487 nM
same,koff,[3],0.23 s⁻¹
same,kon,[3],465000 M⁻¹ s⁻¹
"Herceptin-EDHS (V264E, L309D, Q311H, N434S) (antibody)",Kd,[3],93 nM
same,koff,[3],0.11 s⁻¹
same,kon,[3],1.2e+06 M⁻¹ s⁻¹
same,fold enhanced affinity than Herceptin,[12],5.9 fold
"Herceptin-EDHY (V264E, L309D, Q311H, N434Y) (antibody)",Kd,[3],28 nM
same,koff,[3],0.038 s⁻¹
same,kon,[3],1.4e+06 M⁻¹ s⁻¹
same,fold enhanced affinity than Herceptin,[12],19.6 fold
Herceptin-IgG4 (wild type IgG4 with the Fab of trastuzumab) (antibody),Kd,[13],2460 nM
Herceptin-LS (M428L/N434S) (antibody),Kd,[14],22.7 nM
same,Kd,[3],55 nM
same,Kd,[4],410 nM
same,Kd,[5],1210 nM
same,Kd,[7],2250 nM
same,Kd,[8],0.58 nM
same,Kd,C1q,16 nM
same,Kd,[15],58.7 nM
same,Kd,[10],55 nM
same,EC50 (read off the curve),[16],10 nM
Herceptin-YTE (M252Y/S254T/T256E) (antibody),Kd,[14],4290 nM
same,Kd,[3],23 nM
same,Kd,[4],620 nM
same,Kd,[5],3200 nM
same,Kd,[6],4410 nM
same,Kd,[7],6240 nM
same,Kd,[8],0.29 nM
same,Kd,C1q,42 nM
same,Kd,[15],4730 nM
same,Kd,[10],23 nM
M428L/N434S (antibody),M (mean fluorescence intensity),[1],152
same,M (mean fluorescence intensity),[2],83.3
"TEDHY (A231T, V264E, L309D, Q311H, and N434Y), IgG displayed on E. coli spheroplasts (antibody)",M (mean fluorescence intensity),[1],231
same,M (mean fluorescence intensity),[2],237
